Paper PMC3170924 (Journal of molecular biology, 2011)

B1: PG peptide, K2WQ10(D-Pro)GQ10AK2 (polyglutamine peptide interrupted by the beta-turn template D-ProGly) (peptide)
peptide: KKWQQQQQQQQQQPGQQQQQQQQQQAKK
HELM: PEPTIDE1{[ac].K.K.W.Q.Q.Q.Q.Q.Q.Q.Q.Q.Q.[dP].G.Q.Q.Q.Q.Q.Q.Q.Q.Q.Q.A.K.K.[am]}$$$$V2.0
SMILES: CC(=O)N[C@@H](CCCCN)C(=O)N[C@@H](CCCCN)C(=O)N[C@@H](Cc1c[nH]c2ccccc12)C(=O)N[C@@H](CCC(N)=O)C(=O)N[C@@H](CCC(N)=O)C(=O)N[C@@H](CCC(N)=O)C(=O)N[C@@H](CCC(N)=O)C(=O)N[C@@H](CCC(N)=O)C(=O)N[C@@H](CCC(N)=O)C(=O)N[C@@H](CCC(N)=O)C(=O)N[C@@H](CCC(N)=O)C(=O)N[C@@H](CCC(N)=O)C(=O)N[C@@H](CCC(N)=O)C(=O)N1CCC[C@@H]1C(=O)NCC(=O)N[C@@H](CCC(N)=O)C(=O)N[C@@H](CCC(N)=O)C(=O)N[C@@H](CCC(N)=O)C(=O)N[C@@H](CCC(N)=O)C(=O)N[C@@H](CCC(N)=O)C(=O)N[C@@H](CCC(N)=O)C(=O)N[C@@H](CCC(N)=O)C(=O)N[C@@H](CCC(N)=O)C(=O)N[C@@H](CCC(N)=O)C(=O)N[C@@H](CCC(N)=O)C(=O)N[C@@H](C)C(=O)N[C@@H](CCCCN)C(=O)N[C@@H](CCCCN)C(N)=O

Target: the molecule itself
Assay: sedimentation assay

Going from Ac-KKWQQQQQQQQQQAAQQQQQQQQQQAKK-NH2 [AA peptide, K2WQ10AAQ10AK2 (polyglutamine peptide interrupted by AlaAla)] to B1, the “Kn k+^2 (nucleation-elongation fit of sedimentation data)” value rises from 0.000197 M^−2s^−2 to 0.127 M^−2s^−2.

For Ac-KKWQQQQQQQQQQQQQQQQQQQQAKK-NH2 [Q20 peptide, K2WQ20AK2 (uninterrupted polyglutamine control)], the “Kn k+^2 (nucleation-elongation fit of sedimentation data)” value was 0.000235 M^−2s^−2.
